Data set [1] has as its system MS2 coat protein. In words: apparent KD of MS2 coat protein; designed switch direction (-1 OFF switch, 1 ON switch): 1; higher = weaker reporter binding. The gist of the method:
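Designed RNA switches sharing common flanks were transcribed on Illumina chips by stalled E. coli RNA polymerase. They were titrated with SNAP-549-labelled MS2 coat protein, from 0.7 or 1.5 nM doubling to 3 µM, in Tris-HCl pH 7.5 buffer with KCl, MgCl2, BSA, DTT, tRNA and Tween-20. Titrations ran without input, with 200 uM small-molecule ligand, or with an oligonucleotide input. The apparent KD of each design is the median over its clusters, after curve-fitting of normalised cluster fluorescence.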

Data set [2] deals with MS2 coat protein. In words: apparent KD of MS2 coat protein; higher = weaker reporter binding. The following applies: Eterna round: R107. A digest of the protocol: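 Apparent KD stands for the median, per design, of fits to normalised cluster binding curves. The curves came from titrating on-chip-transcribed RNA switches on Illumina sequencing clusters with SNAP-549-labelled MS2 coat protein, twofold from 0.7 or 1.5 nM to 3 µM. Buffer was 100 mM Tris-HCl pH 7.5, 80 mM KCl, 4 mM MgCl2, without or with constant ligand.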

Setting [3] is: input ligand: microRNA oligo, concentration not stated.
Where [4] appears, read: Eterna round: R95, input ligand: FMN 200 uM.
[5] abbreviates: Eterna round: R95, input ligand: microRNA oligo, concentration not stated.
[6] abbreviates: Eterna round: R95, input ligand: none.
[7] abbreviates: input ligand: theophylline 20 uM.
[8] abbreviates: input ligand: tryptophan 2.4 mM.
The mark [9] stands for this setting: input ligand: theophylline 2 mM.

Consider 17 sequences from the supplement of paper PMC9170038.

For “AAAAAACAUGAGGAUCACCCAUGUAAAAAAAACACAGGAUAUCCCUUUUUUAAAAAAAAAGGAGAAGGGUGAAAAA [Nob's Hobby 7 - Jieux - Same State 1] (Eterna round: R96, puzzle: Same State 1)”, the “apparent KD of MS2 coat protein” value in the data set with MS2 coat protein [1] (setting [3]) was determined as 36.4 nM.
For “AAACACAUGAGGAUCACCCAUGUAGCGCCAUUGAGGCGCACAUAGGAUAUCCGGUCCAAAAGACCGGAGAAGGGUGAAAGAAAA [Soesen] (Eterna round: R96, puzzle: Same State NG 3)”, the “apparent KD of MS2 coat protein” value with MS2 coat protein [1] (input ligand: FMN 200 uM) worked out at 125 nM; in the data set with MS2 coat protein [1] (setting [3]), 166 nM; with MS2 coat protein [1] (input ligand: none) it was 146 nM.
Regarding “AAACGGGCUACAGGAUAUGCUCGAUAAACUUCAGUAGAAGGGUGGCCUUAUCAACGAACAUGAGGAUCACCCAUGUUCUACAAC [Dianrisole] (Eterna round: R96, puzzle: Same State NG 1)”, the figures for the “apparent KD of MS2 coat protein” value in the data set with MS2 coat protein [1] (input ligand: FMN 200 uM), in the data set on MS2 coat protein [1] (setting [3]) and with MS2 coat protein [1] (input ligand: none) were 77.2 nM, 28.3 nM and 136 nM, respectively.
For “AAACUCGUUGAAGGAUAUCCGGCAGCUAACAAACCGUAACAUGAGGAUCACCCAUGUGUUAGAAAGGAGAAGGUCAGUGACCGG [Eternabot solution 34] (Eterna round: R96, puzzle: Same State NG 2)”, in that order: 17.2 nM, 15.9 nM and 22.3 nM.
For “AAAGAAAACGCAGGAUAUACCCGGGAAACCGAGGUAGAAGGGUGAACCAAAACAAAACUAAAUAACAUGAGGAUCACCCAUGUC [Biarzara] (Eterna round: R96, puzzle: Same State NG 1)”, in that order: 162 nM, 12.7 nM and 132 nM.
For “AAAGGAUGAUUAUACAUGAGGAUCACCCAUGUUUGUAAUACUAAGGAUAUGUGACUUAAUUGUGAACAGAAGGUAGGUUCAUGA [AK SSNG3-V2-1] (Eterna round: R96, puzzle: Same State NG 3)”, in that order: 56.8 nM, 43.6 nM and 62.2 nM.
Turning to “AAAUAAAACACAGGAUAUGCAACCAAAACGGCGGCAGAAGGGUGAGACAUGAGGAUCACCCAUGUACACGUCCCACGGACGUGC [Arorraed] (Eterna round: R96, puzzle: Same State NG 1)”, the “apparent KD of MS2 coat protein” value in the data set with MS2 coat protein [1] (input ligand: FMN 200 uM) worked out at 392 nM; in the data set with MS2 coat protein [1] (setting [3]), 9.43 nM; with MS2 coat protein [1] (input ligand: none) it was 88.4 nM.
For “AAAUAAUAGGCAGGAUAUGGGAAAGGAAGUGUACCAGAAGGGCCGCAACUCAAUACAACAUGAGGAUCACCCAUGUUAGUGUCG [PowerStrip SSNG 1.5] (Eterna round: R96, puzzle: Same State NG 1)”, in that order: 10.2 nM, 14.9 nM and 15.7 nM.
With “AACAAUCUAUCUGAGGAUAUCAUGAAAAAAACAUGAGGAUCACCCAUGUGCAGGAAAACUGCAUAUGAGAAGGCAGAUAGAUUGG [salish99_SS2_r3_003] (Eterna round: R96, puzzle: Same State 2)”, the “apparent KD of MS2 coat protein” value in the data set with MS2 coat protein [1] (setting [3]) came to 494 nM.
Regarding “AACAAUCUAUCUGAGGAUAUCAUGAAAAAAACAUGAGGAUCACCCAUGUGCAGGAAAACUGCAUAUGAGAAGGCAGAUAGAUUGG [salish99_SS2_r3_003] (puzzle: Same State 2)”, the results for the “apparent KD of MS2 coat protein” value in the data set on MS2 coat protein [1] (setting [4]), with MS2 coat protein [1] (setting [5]) and with MS2 coat protein [1] (setting [6]) were 23.2 nM, 589 nM and 814 nM, respectively.
“AACAAUCUAUCUGAGGAUAUCAUGAAAUAAACAUGAGGAUCACCCAUGUGCAGGAAAACUGCAUAUGAGAAGGCAGAUAGAUUGA [salish99_ss2_r3_x] (puzzle: Same State 2)”: the “apparent KD of MS2 coat protein” value in the data set with MS2 coat protein [1] (setting [4]) was found to be 49.5 nM; in the data set with MS2 coat protein [1] (setting [5]), 605 nM; with MS2 coat protein [1] (setting [6]), 1060 nM.
For the sequence “UGUAACAUGAGGAUCACCCAUGUGAGUGAUACCAGAUUAGUAUUAGUCCCUUGGCAGCACAUUGGGCGAGUGUAUAGUCUAUGCG [Same State - Theophylline A (Freestyle 12)]”, the figures for the “apparent KD of MS2 coat protein” value in the data set with MS2 coat protein [2] (input ligand: arginine 13.2 mM), in the data set on MS2 coat protein [2] (setting [7]) and in the data set on MS2 coat protein [2] (setting [8]) were 106 nM, 197 nM and 135 nM, respectively.
Take “UGUAUAUACGGAAGGAGCGUGUAAGAUUAAGAACAUGAGGAUCACCCAUGUUUUAAGGGAACACAGGUAGGUCGCCGUAUAUAUG [11.O]”: the “apparent KD of MS2 coat protein” value stood at 9.29 nM in the data set with MS2 coat protein [2] (input ligand: arginine 13.2 mM); 12.4 nM with MS2 coat protein [2] (input ligand: none); 14.1 nM with MS2 coat protein [2] (setting [7]); 11.7 nM in the data set with MS2 coat protein [2] (setting [9]); 10.3 nM with MS2 coat protein [2] (setting [8]).
On to “UGUAUGGACUGAAGGAGCGCCUCAAAACAUGAGGAUCACCCAUGUGGACAAUAAGUCCUUGGGCAGGUAGGUCGCAGUCCAUACU [ArgBX 6 #StaticStem #MS2Late]”, for which the “apparent KD of MS2 coat protein” value was determined as 81.4 nM with MS2 coat protein [2] (input ligand: arginine 13.2 mM); 50 nM with MS2 coat protein [2] (input ligand: none); 84.6 nM with MS2 coat protein [2] (setting [7]); 85.3 nM in the data set with MS2 coat protein [2] (setting [9]); 60.9 nM with MS2 coat protein [2] (setting [8]).
As to “UGUAUGGACUGAAGGAGCGGAUGAUAACCUGAGGAUCACCCGGGUAAUAAGGCGAAAGCCAUCCAGGUAGGUCGCAGUCCAUACU”, the “apparent KD of MS2 coat protein” value came to 53.2 nM with MS2 coat protein [2] (input ligand: arginine 13.2 mM); 101 nM in the data set with MS2 coat protein [2] (input ligand: none); 111 nM with MS2 coat protein [2] (setting [7]); 126 nM in the data set with MS2 coat protein [2] (setting [9]); 82.9 nM in the data set with MS2 coat protein [2] (setting [8]).
For “UGUAUGGACUGAAGGAGCGGGUAAUAAACCUGAGGAUCACCCAGGUAAUAGGCGAAAGCCGCCCAGGUAGGUCGCAGUCCAUACU”, in that order: 13.2 nM, 13.5 nM, 13.7 nM, 11.7 nM and 12.5 nM.
Turning to “UGUAUGGACUGAAGGAGCGGGUUGAUAACUUGAGGAUCACCCAGGUAAAAGGCGAAAGCCGCCCAGGUAGGUCGCAGUCCAUACU”, the “apparent KD of MS2 coat protein” value with MS2 coat protein [2] (input ligand: arginine 13.2 mM) is 40.2 nM; in the data set on MS2 coat protein [2] (input ligand: none) it was 45.6 nM; in the data set on MS2 coat protein [2] (setting [7]), 54.9 nM; with MS2 coat protein [2] (setting [9]) it was 61.7 nM; in the data set on MS2 coat protein [2] (setting [8]), 49.2 nM.
